In the supplement of paper PMC10724198:
± gives the standard deviation of the averaged measurements.

Test system: Saccharomyces cerevisiae
Assay: protein stability index of tFT-peptide fusion (C-terminal peptide) (PSI (0-1 scale)); higher = more stable (slower turnover)
Conditions: genetic background: wild type; temperature: 30 C
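Further: PSI is a weighted mean of sequencing reads over stability bins, variants kept only with over 10 reads, mCherry proximal and sfGFP distal, peptide attached via GGGS linker.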

SSIGPTECSYFS
protein stability index: 0.678 ± 0.088

SSLLPSPPPPLP
protein stability index: 0.677 ± 0.028

SSLPPPAPSFVP
protein stability index: 0.646 ± 0.1

SSLTPRVSFIIF
protein stability index: 0.64 ± 0.12

SSMCYARIIWWG
protein stability index: 0.596 ± 0.039

SSPAGSRLPFGS
protein stability index: 0.75 ± 0.11

SSPCFGKLRHFL
protein stability index: 0.686 ± 0.035

SSPFSLPSPPLS
protein stability index: 0.676 ± 0.071

SSPHRPTPSWPP
protein stability index: 0.564 ± 0.0069

SSPLPPAPPTAS
protein stability index: 0.587 ± 0.1

SSPLPPPSRAAC
protein stability index: 0.762 ± 0.011

SSPPFPPSPPLP
protein stability index: 0.695 ± 0.012

SSPPPPPPPLPL
protein stability index: 0.705 ± 0.023

SSPPSPSPPPPT
protein stability index: 0.678 ± 0.038

SSPPTPPFPPPP
protein stability index: 0.7044 ± 0.00099

SSPRPPPPRFSP
protein stability index: 0.687 ± 0.039

SSPSPPRPPAPF
protein stability index: 0.704 ± 0.091

SSPSPPSPPLPP
protein stability index: 0.735 ± 0.0095

SSRFNVAPGGCR
protein stability index: 0.745 ± 0.11

SSRGSSSPPPHF
protein stability index: 0.709 ± 0.074

SSSHIRTDLSHF
protein stability index: 0.6852 ± 0.0065

SSSPLLDPPLPH
protein stability index: 0.68 ± 0.017

SSSPSPRPPRPP
protein stability index: 0.679 ± 0.0097

SSSVQSIPLPSA
protein stability index: 0.71 ± 0.043

SSTDLLDLALLV
protein stability index: 0.718 ± 0.094

SSWGARSGRRPS
protein stability index: 0.6989 ± 0.0045

STAKTARRKREK
protein stability index: 0.671 ± 0.0094

STFGVMVTHEMN
protein stability index: 0.727 ± 0.021

STFQVHSLPISP
protein stability index: 0.702 ± 0.031

STGMYFYTHYLL
protein stability index: 0.632 ± 0.024

STHTASAIQWST
protein stability index: 0.661 ± 0.025

STIIKLCDCYKM
protein stability index: 0.7 ± 0.11

STLPPPSSPFHP
protein stability index: 0.96 ± 0.021

STLPTHQLPPHS
protein stability index: 0.624 ± 0.022

STLRFGVSLWLP
protein stability index: 0.712 ± 0.03

STLTPLPLRASA
protein stability index: 0.5333 ± 0.005

STLVIPFPPFHF
protein stability index: 0.7 ± 0.018

STLYLKRKKIKK
protein stability index: 0.696 ± 0.033

STNARRLWGRGV
protein stability index: 0.699 ± 0.033

STPPPHSPLPPP
protein stability index: 0.689 ± 0.066

STRERPDRHAVS
protein stability index: 0.676 ± 0.016

STSPRSAFSPLT
protein stability index: 0.619 ± 0.011

STVPGRPKLTLV
protein stability index: 0.578 ± 0.032

SVALGRQGTPNI
protein stability index: 0.6506 ± 0.0064

SVALPLRQTPLH
protein stability index: 0.667 ± 0.047

SVAPAPYQTAKQ
protein stability index: 0.744 ± 0.032

SVCRVSVKKECR
protein stability index: 0.701 ± 0.12

SVCSRVLILSPF
protein stability index: 0.657 ± 0.068

SVDPIFLNSGLG
protein stability index: 0.693 ± 0.045

SVFPHPYMVVRS
protein stability index: 0.598 ± 0.0092

SVGPVGASIGGG
protein stability index: 0.6668 ± 0.0032

SVHPVNRDPSRH
protein stability index: 0.6904 ± 0.0014

SVINMLKPCNVI
protein stability index: 0.647 ± 0.05

SVLVTRILKFFL
protein stability index: 0.558 ± 0.068

SVMMGVWWSGYR
protein stability index: 0.709 ± 0.13

SVNGTGGGVVDL
protein stability index: 0.638 ± 0.12

SVPFPTEYLVVD
protein stability index: 0.681 ± 0.075

SVPNYDAVGAGD
protein stability index: 0.667 ± 0.097

SVPRPLSRPPFL
protein stability index: 0.697 ± 0.086

SVPVLLLSILSP
protein stability index: 0.542 ± 0.013

SVSGPAPPSMSS
protein stability index: 0.618 ± 0.12

SVSGTPLRALLH
protein stability index: 0.622 ± 0.01

SVSPSPPSPHLR
protein stability index: 0.688 ± 0.011

SVTSKDEYDLEE
protein stability index: 0.694 ± 0.043

SVVGEKAALMGV
protein stability index: 0.662 ± 0.014

SWGACVDYLGWS
protein stability index: 0.754 ± 0.03

SWGDVGSWLGGV
protein stability index: 0.663 ± 0.0068

SWGLGWIARRRT
protein stability index: 0.684 ± 0.052

SWLGGIGGNEMV
protein stability index: 0.726 ± 0.011

SWLKRNLFPVAI
protein stability index: 0.596 ± 0.018

SWVDVGSWLGGV
protein stability index: 0.7108 ± 0.0043

SWVGHGIPPWHM
protein stability index: 0.729 ± 0.027

SWVSQFLVFWPV
protein stability index: 0.716 ± 0.044

SWVSSGTVILQE
protein stability index: 0.74 ± 0.077

SWYSLVWTSSER
protein stability index: 0.695 ± 0.054

SYCRPPPLPGLP
protein stability index: 0.628 ± 0.038

SYETLRTPARIA
protein stability index: 0.583 ± 0.043

SYLMVATRFGEN
protein stability index: 0.741 ± 0.067

SYMLEGVEGVGE
protein stability index: 0.736 ± 0.086

SYPPLLPQLPPP
protein stability index: 0.678 ± 0.062

SYPRATPPWMAG
protein stability index: 0.727 ± 0.092

SYQPQLDSKRVG
protein stability index: 0.63 ± 0.019

SYRNRTEHPKLP
protein stability index: 0.74 ± 0.036

SYSGLLEALTTL
protein stability index: 0.737 ± 0.032

SYSLGAGVCGVW
protein stability index: 0.682 ± 0.058

TANRVDDSILSS
protein stability index: 0.671 ± 0.024

TARRGAARSSQL
protein stability index: 0.695 ± 0.017

TASPPLHSFLGS
protein stability index: 0.679 ± 0.034

TAYNVTLVIARG
protein stability index: 0.468 ± 0.094

TCAGTGSTHLSR
protein stability index: 0.688 ± 0.035

TCPLSFFLSFLF
protein stability index: 0.565 ± 0.037

TCTDTCIRGSRL
protein stability index: 0.77 ± 0.033

TCTGAKHRCHVL
protein stability index: 0.677 ± 0.011

TDWCSYWSGWVV
protein stability index: 0.722 ± 0.019

TEFFVFNRTQSL
protein stability index: 0.671 ± 0.088

TEGGSSKPSSNP
protein stability index: 0.704 ± 0.089

TEKTHRTTIVNN
protein stability index: 0.7254 ± 0.0061

TESGWMGRGFMR
protein stability index: 0.656 ± 0.088

TEVSAPAPPCLW
protein stability index: 0.6371 ± 0.0058

TEYCSRHDTATK
protein stability index: 0.728 ± 0.0096

TFRHLRPPLRSR
protein stability index: 0.649 ± 0.037
